Data taken from the supplement of paper PMC7125110.
± gives the standard error. Fewer inactive variants are shown than the library holds.

B1: glmS ribozyme (parent)
chain: AUAAAAGCGCCAGAACUACAGAAAUGUAGUUGACGAGGAGGAGGUUUAUCGAAUUUUCGGCGGAUGCCUCCAAA

Key:
Conditions in all cases: with glucosamine-6-phosphate
glucosamine-6-phosphate [1] = variants of: B1; experiment: self-cleavage kobs at 640 uM GlcN6P; higher = faster cleavage; RNA array
Procedure, shortened: (§1)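 Glucosamine-6-phosphate (40 μM to 10 mM) in HEPES/KCl/Mg(OAc)2 buffer was flowed over sequenced MiSeq chips, and tiles were imaged over ~14 h. Barcoded ribozyme variants there had been transcribed in situ by E. coli RNA polymerase and were tracked through a hybridised Cy3 probe at 37 °C. One- or two-exponential decay fits to per-tile medians, normalised to baseline and to non-cleaving reference variants, gave kobs. kcat and KM came from weighted Michaelis–Menten fits across concentrations.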

glucosamine-6-phosphate [2] = variants of: B1; experiment: self-cleavage kobs at 2500 uM GlcN6P; higher = faster cleavage; RNA array
Procedure, shortened: as §1

glucosamine-6-phosphate [3] = variants of: B1; experiment: self-cleavage kobs at 10000 uM GlcN6P; higher = faster cleavage; RNA array
Procedure, shortened: as §1

Variant	self-cleavage kobs at 640 uM GlcN6P (glucosamine-6-phosphate [1])	self-cleavage kobs at 2500 uM GlcN6P (glucosamine-6-phosphate [2])	self-cleavage kobs at 10000 uM GlcN6P (glucosamine-6-phosphate [3])
U31G G37C G38C	< 1e-05 s⁻¹	< 1e-05 s⁻¹	–
U31C A53U C67U	0.000239 ± 6.6e-05 s⁻¹	0.00045 ± 9.3e-05 s⁻¹	–
U31C G37A	0.000113 ± 2.3e-05 s⁻¹	0.000119 ± 1.8e-05 s⁻¹	0.000359 ± 3.4e-05 s⁻¹
U31G G38U A53G C68A C71A	0.000204 ± 7.6e-05 s⁻¹	–	–
U31A A39C C50G C71A	< 1e-05 s⁻¹	< 1e-05 s⁻¹	< 1e-05 s⁻¹
U31A C58G A64C C68U	0.00011 ± 3.5e-05 s⁻¹	8.36e-05 ± 2.2e-05 s⁻¹	–
G29U A48U C61U	< 1e-05 s⁻¹	–	–
U30G U47A G60U	< 1e-05 s⁻¹	–	–
U31G G44U U46G C58A	< 1e-05 s⁻¹	–	–
U31G G38A U57C C58U G66C	< 1e-05 s⁻¹	–	–
U30C G32C C58A	3.93e-05 ± 1.5e-05 s⁻¹	–	–
G29C A33U G35C A52U	< 1e-05 s⁻¹	< 1e-05 s⁻¹	–
C16U U55A C68U	0.000364 ± 0.00011 s⁻¹	0.00062 ± 0.00021 s⁻¹	–
C16U U55A C68G	8.37e-05 ± 1.4e-05 s⁻¹	3.34e-05 ± 1e-05 s⁻¹	7.42e-05 ± 1.8e-05 s⁻¹
G29C A36C C61A	< 1e-05 s⁻¹	< 1e-05 s⁻¹	–
C16U A53G C70A	0.000224 ± 3.5e-05 s⁻¹	0.000232 ± 6.5e-05 s⁻¹	–
U31C C50G G59A C71G	7.63e-05 ± 1.9e-05 s⁻¹	–	–
U31A G43C U45G A52U C70U	< 1e-05 s⁻¹	–	–
G21U C70G	0.000253 ± 5.1e-05 s⁻¹	0.000154 ± 3.9e-05 s⁻¹	9.23e-05 ± 2.3e-05 s⁻¹
C16U G32C G35A C68A	< 1e-05 s⁻¹	< 1e-05 s⁻¹	–
U31C A42G G66A	0.000315 ± 9.6e-05 s⁻¹	0.00117 ± 0.00033 s⁻¹	–
U30A C34U G41C G51A	< 1e-05 s⁻¹	–	–

Variant	self-cleavage kobs at 640 uM GlcN6P (glucosamine-6-phosphate [1])	self-cleavage kobs at 2500 uM GlcN6P (glucosamine-6-phosphate [2])	self-cleavage kobs at 10000 uM GlcN6P (glucosamine-6-phosphate [3])
U30C C67A C70G	6.32e-05 ± 1.4e-05 s⁻¹	–	–
U30A U31C A39U	0.00038 ± 0.00011 s⁻¹	0.000577 ± 0.00018 s⁻¹	–
C16U U57G C68U	3.89e-05 ± 1.6e-05 s⁻¹	–	–
G29U G51A A64U U69G	0.000114 ± 3.7e-05 s⁻¹	0.000294 ± 9.7e-05 s⁻¹	–
U31A C58U U69G	0.000109 ± 4.2e-05 s⁻¹	7.72e-05 ± 2.2e-05 s⁻¹	–
U31A U46G A48G	< 1e-05 s⁻¹	–	–
U30G U46C U47G	8.33e-05 ± 2.2e-05 s⁻¹	–	–
G29A G38C C70A	6.65e-05 ± 3.1e-05 s⁻¹	–	–
G29U G37A C50G C68G	0.000384 ± 0.00016 s⁻¹	5.37e-05 ± 1.7e-05 s⁻¹	–
U31A U54A C68A	6.98e-05 ± 2.6e-05 s⁻¹	–	–
G29U A33U G43C G60C G62U C71G	< 1e-05 s⁻¹	< 1e-05 s⁻¹	–
G29A U30A U31C	0.000152 ± 2.2e-05 s⁻¹	0.000309 ± 6.5e-05 s⁻¹	–
G29C U31G A36U	< 1e-05 s⁻¹	–	–
U30C C50G C61G	0.000327 ± 0.00012 s⁻¹	–	–
G29A G32U G40U G44U	< 1e-05 s⁻¹	< 1e-05 s⁻¹	–
G29C A39G U46A U65G	0.000174 ± 6.2e-05 s⁻¹	0.000622 ± 0.00019 s⁻¹	–
G29A U47G A53G C61U U65A	< 1e-05 s⁻¹	–	–
U30C U47G	6.62e-05 ± 2.2e-05 s⁻¹	3.09e-05 ± 1.1e-05 s⁻¹	2.83e-05 ± 6e-06 s⁻¹
C16U G59C G62U	< 1e-05 s⁻¹	–	–
U30C U45G U56G C68G	< 1e-05 s⁻¹	< 1e-05 s⁻¹	–
U30A A48C C58U G59C	< 1e-05 s⁻¹	–	–
U30A U69G C71A	0.00266 ± 0.00078 s⁻¹	–	–

Variant	self-cleavage kobs at 640 uM GlcN6P (glucosamine-6-phosphate [1])	self-cleavage kobs at 2500 uM GlcN6P (glucosamine-6-phosphate [2])	self-cleavage kobs at 10000 uM GlcN6P (glucosamine-6-phosphate [3])
G29U A36C G44U	< 1e-05 s⁻¹	–	< 1e-05 s⁻¹
G29A G40A A64G	5.47e-05 ± 1.8e-05 s⁻¹	0.000112 ± 2.1e-05 s⁻¹	–
U31C A33U A36U G38C C58U U65G G66C C71U	< 1e-05 s⁻¹	< 1e-05 s⁻¹	–
U30A C70G C71U	5.91e-05 ± 2.5e-05 s⁻¹	8.51e-05 ± 2.9e-05 s⁻¹	–
U30G A39U U65C	0.000103 ± 3.8e-05 s⁻¹	–	0.000419 ± 6.3e-05 s⁻¹
G29U U45G U65C	< 1e-05 s⁻¹	< 1e-05 s⁻¹	–
U30A G40U G63A A64G	< 1e-05 s⁻¹	–	–
G29U C34U C50G C70U	0.000136 ± 2.9e-05 s⁻¹	8.93e-05 ± 2.5e-05 s⁻¹	–
G29C U56A C71A	4.27e-05 ± 1.8e-05 s⁻¹	–	–
U30A A42C C71U	< 1e-05 s⁻¹	–	–
U31G G35C G51U	< 1e-05 s⁻¹	–	–
G29U A33U G44U A52U	< 1e-05 s⁻¹	–	–
U30G G40A U56G	6.26e-05 ± 2e-05 s⁻¹	0.00032 ± 7.3e-05 s⁻¹	–
U30A U31C G32A	6.3e-05 ± 1.6e-05 s⁻¹	0.000298 ± 5.8e-05 s⁻¹	–
U31G G37C U45G C70U	< 1e-05 s⁻¹	< 1e-05 s⁻¹	–
G29C G40A G44U A64G	< 1e-05 s⁻¹	< 1e-05 s⁻¹	–
G29U A36U A39G G60A	< 1e-05 s⁻¹	–	–
U31G G41U U47G	7.13e-05 ± 2e-05 s⁻¹	0.000232 ± 5.7e-05 s⁻¹	–
U30A G37A U56A	5.62e-05 ± 1.7e-05 s⁻¹	–	–
G29C G37C C68G	7.66e-05 ± 3.4e-05 s⁻¹	–	–
G29A A52C U57G A64G C71A	< 1e-05 s⁻¹	–	–
